Data: patent publication US20230218735A1 (Pfizer, published 2023)

B1: hCDIFA-7 (antibody, V domains shown)
VH: QVQLRESGPGLVKPSETLSLTCTVSGGSVSNYYWSWIRQPPGKGLEWIGYIYSSGTINFNPSLKGRVTISGDTSKNQFSLKLSSVTAADTAVYYCARSGKWALGAFDIWGQGTMVTVSS
VL: QSALTQPPSVSGAPGQRVTISCTGSSSNIGTGYDVHWYQQLPGKVPKLLIHGNGDRPSGVPDRFSASKSGTSASLAITGLQSEDEGDYYCQSYDNSLSGLVVFGGGTKLTVLG
B2: hCDIFA-11 (antibody, V domains shown)
VH: QVQLVQSATEMKKPGASVKVSCKASGYTFSDSYMHWVRQAPGQGLEWMGWINPDSGGTNYAQKFKGWVTMTRDTSINTVYMELRRLRSDDTAVYYCARDGGDYARHSLDYWGQGTLVTVSS
VL: DVVMTQSPGTLSLSPGERVTLSCRASQSVNSDYLVWYQQKPGQAPRLLIYGASSRATGIPDRFSGSGSGPDFTLTISRLEPEDVAVYYCQLYGGLFTFGQGTRLEIKR
B3: hCDIFA-56 (antibody, V domains shown)
VH: QVQLVQSGAEVKKPGASVKVSCKVSGYTLPELSMHWVRQAPGKGLEWMGGFDPEDDDTIYAQKFQGRVTMTEDTSTDTAYLELSSLRSEDTAVYYCATDSSPLYNENYFGSAAFDVWGQGTTVTVSS
VL: AIRMTQSPSSLSASVGDRVTITCRASQGISTYLAWYQQKPGKAPKLLLYAASRLESGVPSRFSGSGSGTDYTLTINSLQPEDFATYYCQQYDRMPRTFGQGTKVEIKR
B4: hCDIFA-46 (antibody, V domains shown)
VH: EVQLVESGGGLVQPGGSLRLSCAASGFTVSRNYMTWVRQAPGKGLEWVSVIYSGGSTYHADSVKGRFTISRDNSKNTLNLQMSSLRAEDTAVYYCARPCPGSSISCDYNMDVWGQGTTVTVSS
VL: QAVVTQPASVSGSPGQSITISCTGTSSDVGGYNYVSWYQQHPGKAPKLIIYEVSNRPSGVSNRFSGSKSGNTASLTISGLQAEDEADYYCTSYTSSSMIDVFGTGTKLTVLG
B5: hCDIFA-8 (antibody, V domains shown)
VH: QVQLVESGGGLVKPGGSLRLSCAASGFTFSTSSMNWVRQAPGKGLEWVSSINTSGDYIYYTDSVKGRFTISRDNAKNSLYLQMNSLRAEDTAVYYCARDLGTWRDYWGQGTLVTVSS
VL: QSVLTQPASVSGSPGQSITISCTGTSSDVGSYNLVSWYHQHPGKAPKLIIYEVSKRPSGVSNRFSGSKSGNTASLTISGLQAEDEADYYCYSYAGSSAFAWVFGTGTKLTVLG

Target: T1, genetically modified and chemically inactivated C. difficile toxoid A (Clostridium difficile, UniProt P16154 2-2710)
T1 construct: also called TxdA; the toxoid
Experiment: ITC

| Binder | DH [kcal/mol] | Kd [nM] | Stoichiometry |
| --- | --- | --- | --- |
| B1 | -13.5 | 118 | 2.94 |
| B2 | -17.9 | 4 | 0.97 |
| B3 | -10.3 | 5 | 0.78 |
| B4 | -11.3 | 3 | 1 |
| B5 | -6.9 | 20 | 2.02 |

Target: C. difficile toxin A (Clostridium difficile, UniProt P16154 1-2710)
Experiment: cell-based or functional assay

| Binder | EC50 TcdA [RLU], toxin neutralization assay (TNA) on IMR90 cells [RLU] |
| --- | --- |
| B1 | 13300 |
| B2 | 60 |
| B3 | 111000 |
| B4 | 1490 |
| B5 | 35400 |
